For series [1], the system named is Kemptide (a peptide substrate for PKA).
For series [2], the system named is protein phosphatase inhibitor 2 (I-2).

As to p42 MAP kinase (Erk2), the “phosphorylation (33P-γ-ATP, autoradiography emulsion on slide)” value (“phosphorylation” below) in series [1] is “only the specific substrates of these kinases (I-2 and Elk1, respectively) were phosphorylated (Kemptide not phosphorylated by Erk2)”; in series [2] it was “only the specific substrates of these kinases (I-2 and Elk1, respectively) were phosphorylated (I-2 not phosphorylated by Erk2)”; with Elk1 it was “only the specific substrates of these kinases (I-2 and Elk1, respectively) were phosphorylated”.
As for “catalytic subunit of cAMP-dependent protein kinase (PKA)”, the “phosphorylation” value is listed as “only the substrate for PKA (Kemptide) was phosphorylated” in series [1], “only the substrate for PKA (Kemptide) was phosphorylated (I-2 not phosphorylated)” in series [2] and “only the substrate for PKA (Kemptide) was phosphorylated (Elk1 not phosphorylated)” with Elk1.
On to casein kinase II (CKII), for which the “phosphorylation” value was “only the specific substrates of these kinases (I-2 and Elk1, respectively) were phosphorylated (Kemptide not phosphorylated by CKII)” in series [1]; “only the specific substrates of these kinases (I-2 and Elk1, respectively) were phosphorylated” in series [2]; “only the specific substrates of these kinases (I-2 and Elk1, respectively) were phosphorylated (Elk1 not phosphorylated by CKII)” with Elk1.

These data come from patent US20020102617.
